Measured values published in patent US20230002496A1 (STAIDSON BEIJING BIOPHARMACEUTICALS, published 2023).
Substitutions are numbered along the chain they refer to.

T1: human GM-CSFRα-6His (human, UniProt P15509 23-320)
T1 construct: pTT5-GMRa-6his (ECD), made in 293F cells; also called GMRah; GMRa-6his(ECD)
T1 sequence: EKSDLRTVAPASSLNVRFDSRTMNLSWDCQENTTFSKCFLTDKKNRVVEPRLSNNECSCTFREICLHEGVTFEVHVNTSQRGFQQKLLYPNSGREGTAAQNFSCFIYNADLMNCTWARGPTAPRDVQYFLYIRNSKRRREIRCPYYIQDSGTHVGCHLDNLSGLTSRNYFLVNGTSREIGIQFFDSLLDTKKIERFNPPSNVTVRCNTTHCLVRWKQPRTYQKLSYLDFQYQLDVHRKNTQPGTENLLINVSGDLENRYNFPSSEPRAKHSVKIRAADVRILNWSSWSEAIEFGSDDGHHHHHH

B1: E113-IgG4 (antibody, V domains shown)
VH: QMQLVQSGAEVKKPGASVKVSCKVSGYTLTELSIHWVRQAPGKGLEWMGGFDPEDGETIYAQKSQGRVTMTGDTSTDTAYLELSSLRSEDTALYYCATGRYTELFASYGFDYWGQGTLVTVSS
VL: EIVMTQSPATLSLSPGERATLSCRASQSVSSYLAWYQQKPGQAPRLLIYGASSRATGIPDRFSGSGSGTDFTLTISRLEPEDFAVYYCQQYNNWPYTFGQGTKLEIK
notes: human IgG4, human kappa
B2: E94-IgG4 (antibody, V domains shown)
VH: B1 VH with Y27H, I34M, S64F, T102C, L104T, F105D, A106I, S107C
VL: B1 VL with Y96P
notes: human IgG4, human kappa
B3: E200a-IgG4 (antibody, V domains shown)
VH: B1 VH with S33P, I34M, S64F, E103I, L104I, F105T, A106T, S107N
VL: B1 VL with N92D, Y96P
notes: human IgG4, human kappa
B4: E90-IgG4 (antibody, V domains shown)
VH: B1 VH with E103G, F105Y
VL: B1 VL with N92D
notes: human IgG4, human kappa
B5: EII33-IgG4 (antibody, V domains shown)
VH: B1 VH with P53G, E54D, D55G, G56E, S64F, E103S, F105A, S107T
VL: B1 VL with N92R, Y96F
notes: human IgG4, human kappa
B6: E54-IgG1 (antibody, V domains shown)
VH: B1 VH with I34M, S64F, T102S, E103S, L104Y, F105D, A106I, S107A
VL: B1 VL with N93S, W94S, Y96P
notes: human IgG1, human kappa
B7: T119-IgG1 (antibody, V domains shown)
VH: B1 VH with Y27H, I59N, T102C, E103S, L104T, F105D, A106T, S107C
VL: B1 VL with Y96P
notes: human IgG1, human kappa; parent antibody
B8: E39-IgG1 (antibody, V domains shown)
VH: B1 VH with Y27H, S64F, T102C, E103S, L104S, F105D, A106L, S107C
VL: B1 VL with N92D, W94S, Y96H
notes: human IgG1, human kappa
B9: E105-IgG1 (antibody, V domains shown)
VH: B1 VH with S64F, E103S, F105M, A106F, S107T
VL: B1 VL with Y96P
notes: human IgG1, human kappa
B10: E113-IgG1 (antibody, V domains shown)
VH: B1 VH
VL: B1 VL
notes: human IgG1, human kappa
B11: E85-IgG1 (antibody, V domains shown)
VH: B1 VH with T102S, E103S, L104Y, A106T, S107N
VL: B1 VL
notes: human IgG1, human kappa
B12: EII55-IgG1 (antibody, V domains shown)
VH: B1 VH with P53G, E54D, D55W, G56H, S64F, E103S, F105D, S107T
VL: B1 VL with N92G, W94R, Y96D
notes: human IgG1, human kappa
B13: E87-IgG1 (antibody, V domains shown)
VH: B1 VH with T102V, E103S, A106F, S107N
VL: B1 VL with Y96P
notes: human IgG1, human kappa
B14: E200a-IgG1 (antibody, V domains shown)
VH: B1 VH with S33P, I34M, S64F, E103I, L104I, F105T, A106T, S107N
VL: B1 VL with N92D, Y96P
notes: human IgG1, human kappa
B15: E40-IgG1 (antibody, V domains shown)
VH: B1 VH with Y27H, S64F, E103S, F105D, A106E
VL: B1 VL with N92D, W94S
notes: human IgG1, human kappa

Molecular target: T1, human GM-CSFRα-6His
Test: competitive ELISA, title on the sheet 'Blocking GMRah binding to GM-CSF'; antibody (human IgG4) titrated; blocked ligand GM-CSF; x axis 'Log Ab concentration', no unit

Binding result, binds:
B1
B2
B3
B4
B5

Molecular target: T1, human GM-CSFRα-6His
Test: ELISA on human GM-CSFRα, antibodies as human IgG1; x axis 'Log Ab concentration', no unit

Binding result, binds:
B6
B7

Molecular target: T1, human GM-CSFRα-6His
Test: as above
Remark: another data set of the same source

Binding result, binds:
B8
B9
B10
B11
B12
B13
B14
B15
